Molecular target: Taxol-stabilized microtubules polymerized from bovine brain tubulin, Q6B856
Test: fluorescence microscopy of microtubule decoration by GFP-tagged protein
Settings: chain shown with the change; 100 nM GFP-tagged Ndc80c Bonsai protein; rhodamine-labeled taxol-stabilized microtubules; parent: est. 12000; read off a plot

Sequence of Taxol-stabilized microtubules polymerized from bovine brain tubulin, Q6B856 (chain, as listed by the source, chain 1 of 2): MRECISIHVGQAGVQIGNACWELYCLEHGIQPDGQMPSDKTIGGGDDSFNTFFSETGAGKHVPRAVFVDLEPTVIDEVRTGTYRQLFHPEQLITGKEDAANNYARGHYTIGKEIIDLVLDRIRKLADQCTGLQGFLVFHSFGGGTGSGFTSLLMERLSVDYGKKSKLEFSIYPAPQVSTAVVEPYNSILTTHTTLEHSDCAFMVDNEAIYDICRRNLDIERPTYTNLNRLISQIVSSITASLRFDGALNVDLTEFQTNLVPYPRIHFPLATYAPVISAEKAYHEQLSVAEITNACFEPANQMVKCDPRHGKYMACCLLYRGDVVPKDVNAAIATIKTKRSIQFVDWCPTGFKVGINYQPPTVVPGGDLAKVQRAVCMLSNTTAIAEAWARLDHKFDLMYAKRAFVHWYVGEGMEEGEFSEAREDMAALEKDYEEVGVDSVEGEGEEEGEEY
Sequence of Taxol-stabilized microtubules polymerized from bovine brain tubulin, Q6B856 (Q6B856 whole entry, chain 2 of 2): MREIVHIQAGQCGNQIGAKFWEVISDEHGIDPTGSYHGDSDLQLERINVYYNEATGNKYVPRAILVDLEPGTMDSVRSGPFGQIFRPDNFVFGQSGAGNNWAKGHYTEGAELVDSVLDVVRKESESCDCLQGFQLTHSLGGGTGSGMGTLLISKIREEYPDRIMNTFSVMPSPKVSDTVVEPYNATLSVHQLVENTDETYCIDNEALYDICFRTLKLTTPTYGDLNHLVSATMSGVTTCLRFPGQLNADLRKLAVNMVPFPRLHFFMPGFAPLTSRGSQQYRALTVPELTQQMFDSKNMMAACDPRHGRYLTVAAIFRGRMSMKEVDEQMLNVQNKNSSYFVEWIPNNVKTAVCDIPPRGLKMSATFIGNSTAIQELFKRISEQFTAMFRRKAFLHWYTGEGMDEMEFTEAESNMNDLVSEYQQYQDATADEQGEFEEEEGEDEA

response [a.u.]	Binder
160	Human Ndc80c Bonsai Ndc80-GFP (WT) Nuf2:K33D; Nuf2:K41D; Nuf2:K115D (protein) chain 1: MKRSSVSSGGAGRLSMQELRSQDVNKQGLYTPQTKEKPTFGKLSINKPTSERKVSLFGKRTSGHGSRNSQLGIFSSSEKIKDPRPLNDKAFIQQCIRQLCEFLTENGYAHNVSMKSLQAPSVKDFLKIFTFLYGFLCPSYELPDTKFEEEVPRIFKDLGYPFALSKSSMYTVGAPHTWPHIVAALVWLIDCIKIHTAMKESSPLFDDGQPWGEETEDGIMHNKLFLDYTIKCYESFMSGADSFDEMNAELQSKLKDLFNVDAFKLESLEAKNRALNEQIARLEQERSTANKANAERLKRLQKSADLYKDRLGLEIRKIYGEKLQFIFTNIDPKNPESPFMFSLHLNEARDYEVSDSAPHLEGLAEFQENVRKTNNFSAFLANVRKAFTATVYN chain 2: METLSFPRYNVAEIVIHIRNKILTGADGKNLTDNDLYPNPDPEVLHMIYMRALQIVYGIRLEHFYMMPVNSEVMYPHLMEGFLPFSNLVTHLDSFLPICRVNDFETADILCPKADRTSRFLSGIINFIHFREACRETYMEFLWQYKSSADKMQQLNAAHQEALMKLERLEKEVDEDTTVTIPSAVYVAQLYHQVSKIEWDYECEPGMVKGIHHGPSVAQPIHLDSTQLSRKFISDYLWSLVDTEW
400	Human Ndc80c Bonsai Ndc80-GFP (WT) Hec1:K166D (protein) chain 1: MKRSSVSSGGAGRLSMQELRSQDVNKQGLYTPQTKEKPTFGKLSINKPTSERKVSLFGKRTSGHGSRNSQLGIFSSSEKIKDPRPLNDKAFIQQCIRQLCEFLTENGYAHNVSMKSLQAPSVKDFLKIFTFLYGFLCPSYELPDTKFEEEVPRIFKDLGYPFALSDSSMYTVGAPHTWPHIVAALVWLIDCIKIHTAMKESSPLFDDGQPWGEETEDGIMHNKLFLDYTIKCYESFMSGADSFDEMNAELQSKLKDLFNVDAFKLESLEAKNRALNEQIARLEQERSTANKANAERLKRLQKSADLYKDRLGLEIRKIYGEKLQFIFTNIDPKNPESPFMFSLHLNEARDYEVSDSAPHLEGLAEFQENVRKTNNFSAFLANVRKAFTATVYN chain 2: METLSFPRYNVAEIVIHIRNKILTGADGKNLTKNDLYPNPKPEVLHMIYMRALQIVYGIRLEHFYMMPVNSEVMYPHLMEGFLPFSNLVTHLDSFLPICRVNDFETADILCPKAKRTSRFLSGIINFIHFREACRETYMEFLWQYKSSADKMQQLNAAHQEALMKLERLEKEVDEDTTVTIPSAVYVAQLYHQVSKIEWDYECEPGMVKGIHHGPSVAQPIHLDSTQLSRKFISDYLWSLVDTEW

Reference: publication PMC12407084
